Reference: US20230250135A1 (Janssen / Centocor, published 2023)

B1: SD15013 (VHH)
VHH: EVQLVESGGGLVQAGDSLRISCAASGRTLSIYSMGWFRQAPGKEREFVATIGWNSGRTFYPDSLKGRFTISRDNARNTLYLQMNNLRPEDTAVYYCAAAKGPLRLSSQADYWGQGTQVTVSS
B2: CT149 (antibody, V domains shown)
VH: QVQLVQSGAEVKKPGASVKVSCKTSGYSFSTYGVSWVRQAPGQGPEWVGWISAYTGITDYAQKFQGRVTLTTDATTATAFLDLRSLRPDDTATYFCARDKVQGRVEVGSGGRHDYWGQGTLVIVSS
VL: EVVLTQSPGTLALPPGERATLSCRASHRVGSTYIAWYQQKSGQAPRRLIYGASNRATDIPDRFSGSGSGTDFTLTIRRLEPEDSAVYYCQQFSVSPWTFGQGTRVEIK

Columns and labels:
UFV161333 = UFV161333 (influenza A virus A/Hong Kong/1/68 …)
UFV161715 = UFV161715 (influenza A virus A/Hong Kong/1/68 …); experiment: Binding-AlphaLISA, Expi293F supernatant, normalized to UFV161333
UFV161721 = UFV161721 (influenza A virus A/Hong Kong/1/68 …); experiment: as above
UFV171004 = UFV171004 (influenza A virus A/Hong Kong/1/68 …); experiment: ELISA on purified polypeptide
UFV170051 = UFV170051 (influenza A virus A/Hong Kong/1/68 …); experiment: Binding-AlphaLISA, Expi293F supernatant, reference UFV170051

| Binder | fold increase in binding relative to reference UFV161686 (UFV161333) [fold] | binding relative to reference UFV161333 (UFV161715) [%] | binding relative to reference UFV161333 (UFV161721) [%] | EC50 (UFV171004) [nM] | binding result (UFV170051) |
| --- | --- | --- | --- | --- | --- |
| B1 | 10 | ~60 | ~60 |  |  |
| B2 |  | ~90 |  | < 0.01 | binds |
